Assay results published in the supplement of paper PMC9732359.
± gives the uncertainty stated by the source.

Assay: protein stability index of a GFP-peptide fusion (yeast GPS) (PSI 1-4); higher = more stable; sorted into four equal gates, so the index is relative within each strain
Outline: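 Yeast carrying a pooled library were grown to mid-log phase in leucine-free medium. Each library plasmid expresses Cherry and has a tiled 17-residue yeast protein peptide fused downstream of GFP. Cells were sorted into four equal gates by GFP/Cherry ratio, and plasmids from each gate were PCR-amplified, Illumina-sequenced and assigned to strains by barcode. Summing, across gates, the read frequency times the gate number gave each peptide's protein stability index.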

| Sequence | protein stability index (doa10∆) | protein stability index (pdr5∆) | protein stability index (san1∆) | protein stability index (ubr1∆) |
| --- | --- | --- | --- | --- |
| TPAFGSNNTGNTAFGNS [YJL041W/NSP1] | 2.85 ± 0.11 | 3.13 ± 0.081 | 3.28 ± 0.067 | 3.08 ± 0.049 |
| QLAVANEIIRSLSDEVM [SIR4] | 3.16 ± 0.077 | 3 ± 0.081 | 2.59 ± 0.12 | 3.21 ± 0.087 |
| PTKTLTTKERKKSRLGN [PRP8] | 2.33 ± 0.079 | 2.26 ± 0.072 | 2.91 ± 0.094 | 2.62 ± 0.056 |
| FTIQSFVSSLSNTSTLK [BRR2] | 1.83 ± 0.05 | 1.97 ± 0.041 | 2.01 ± 0.055 | 2.24 ± 0.034 |
| KNGTIVKKAVTVHSKSR [RPL19A] | 2.44 ± 0.068 | 2.8 ± 0.068 | 2.45 ± 0.079 | 1.96 ± 0.068 |
| RKYDLFQNLELETEQLS [SMC2] | 3.21 ± 0.073 | 3.1 ± 0.076 | 1.99 ± 0.17 | 2.17 ± 0.059 |
| GAKQTQGGAMNKKSEQA [SRP72] | 2.77 ± 0.067 | 3.07 ± 0.07 | 3.26 ± 0.049 | 3.47 ± 0.054 |
| KERISVAAASKILSNLV [PRE2] | 2.75 ± 0.059 | 2.69 ± 0.041 | 2.78 ± 0.048 | 2.71 ± 0.034 |
| MASTAVMMDVDSSGVND [RPN3] | 3.17 ± 0.19 | 3.51 ± 0.2 |  | 3.26 ± 0.091 |
| ALKKSRSKGKQNRPYNH [RPC17] | 3.04 ± 0.093 | 2.46 ± 0.1 | 2.5 ± 0.1 | 2.42 ± 0.091 |
| TLHLVLRLRGGIIEPSL [RPL40A] | 2.99 ± 0.056 | 2.81 ± 0.049 | 2.58 ± 0.056 | 2.77 ± 0.044 |
| FSFTEPAQKDSSVVSEP [YOR098C/NUP1] | 3.02 ± 0.097 | 3.11 ± 0.1 | 2.81 ± 0.12 | 3.26 ± 0.094 |
| CTEAGLLALRERRMQVT [RPT2] | 2.17 ± 0.092 | 2.9 ± 0.15 | 2.33 ± 0.14 | 2.7 ± 0.11 |
| AFKHKRALVEHIIQAKA [RPL19A] | 3.11 ± 0.13 | 3.37 ± 0.1 | 3.19 ± 0.12 | 3.19 ± 0.072 |
| DGDASKPAFSFGAKSDE [YJL041W/NSP1] | 3.32 ± 0.064 | 3.26 ± 0.053 | 3.15 ± 0.037 | 3.43 ± 0.044 |
| AASLGDMVMATVKKGKP [RPL23A] | 2.6 ± 0.1 | 1.96 ± 0.087 | 3.5 ± 0.099 | 2.91 ± 0.078 |
| AIAGNSTTNSDVSLLLQ [RGR1] | 3.09 ± 0.13 | 2.19 ± 0.082 | 3.03 ± 0.056 | 3.13 ± 0.071 |
| SKSEFAHRIMLTNILRM [FAS2] | 1.62 ± 0.066 | 1.67 ± 0.068 | 1.46 ± 0.14 | 1.85 ± 0.081 |
| VDFSKYNTNFNLLLREL [SRP72] | 2.99 ± 0.1 | 3.24 ± 0.12 | 2.97 ± 0.1 | 3.31 ± 0.056 |
| DLLVIDSHKRIPDMSKN [SNU114] | 2.99 ± 0.073 | 3.09 ± 0.073 | 2.93 ± 0.053 | 3.24 ± 0.056 |
| TLLKKANRDDVKGRENE [RPC82] |  | 3.5 ± 0.23 |  | 3.15 ± 0.17 |
| DLETLTMHTKTYAAEIA [RPL32] | 2.99 ± 0.061 | 2.74 ± 0.054 | 2.42 ± 0.053 | 2.63 ± 0.059 |
| ESFTEELSNELSRLSTA [MED1] | 3.25 ± 0.066 | 3.12 ± 0.066 | 3.05 ± 0.053 | 3.21 ± 0.034 |
| NQQQPPQDILSKLYLLL [SNF11] | 2.09 ± 0.042 | 2.55 ± 0.051 | 2.47 ± 0.056 | 2.54 ± 0.045 |
| LYSYLIKENFFERIMIL [YJL039C/NUP192] | 1.48 ± 0.063 | 1.42 ± 0.073 | 1.49 ± 0.2 | 1.26 ± 0.11 |
| QNIKAPSVKRQKMAELE [PRP8] | 3.29 ± 0.088 | 3.25 ± 0.07 | 3.3 ± 0.074 | 3.29 ± 0.077 |
| QNNNTLGGGGLFGQSQQ [YGR119C/NUP57] | 3.43 ± 0.13 | 3.27 ± 0.29 | 3.18 ± 0.12 | 3.07 ± 0.087 |
